The source of these data is article PMC7467306.

The target in assay [1] is human insulin receptor isoform A (human) (UniProt P06213). The assay can be described thus: radioligand binding; competition with [125I]-monoiodotyrosyl-TyrA14-insulin on intact human IM-9 lymphocytes (human IR-A).
The target in assay [2] is His-tagged domain 11 (D11) of human IGF2R (human) (UniProt P11717). The assay can be described thus: radioligand binding; competition of unlabeled ligand (10^-12-10^-6 M) with [125I]-monoiodotyrosyl-Tyr2-IGF2 (43000 cpm, 0.02 nM) for D11 held in wells on iBodies; 16 h at 5 °C, HEPES binding buffer pH 7.6 with 1 % BSA; one-site fit with ligand depletion, Kd of the tracer set to 2 nM.

Assay [3] has as its target human IGF-1 receptor (human) (UniProt P08069). The assay can be described thus: radioligand binding; competition with [125I]-monoiodotyrosyl-IGF1 on intact mouse fibroblasts transfected with human IGF-1R and with deleted mouse IGF-1R.

Sequence of UniProt P11717 (P11717 1508-1651): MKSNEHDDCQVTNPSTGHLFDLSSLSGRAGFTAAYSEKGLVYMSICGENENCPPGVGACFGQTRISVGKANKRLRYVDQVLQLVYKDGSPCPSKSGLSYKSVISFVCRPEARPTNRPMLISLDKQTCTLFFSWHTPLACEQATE
Sequence of UniProt P06213 (P06213 other isoform, or with tags, fused parts or gaps): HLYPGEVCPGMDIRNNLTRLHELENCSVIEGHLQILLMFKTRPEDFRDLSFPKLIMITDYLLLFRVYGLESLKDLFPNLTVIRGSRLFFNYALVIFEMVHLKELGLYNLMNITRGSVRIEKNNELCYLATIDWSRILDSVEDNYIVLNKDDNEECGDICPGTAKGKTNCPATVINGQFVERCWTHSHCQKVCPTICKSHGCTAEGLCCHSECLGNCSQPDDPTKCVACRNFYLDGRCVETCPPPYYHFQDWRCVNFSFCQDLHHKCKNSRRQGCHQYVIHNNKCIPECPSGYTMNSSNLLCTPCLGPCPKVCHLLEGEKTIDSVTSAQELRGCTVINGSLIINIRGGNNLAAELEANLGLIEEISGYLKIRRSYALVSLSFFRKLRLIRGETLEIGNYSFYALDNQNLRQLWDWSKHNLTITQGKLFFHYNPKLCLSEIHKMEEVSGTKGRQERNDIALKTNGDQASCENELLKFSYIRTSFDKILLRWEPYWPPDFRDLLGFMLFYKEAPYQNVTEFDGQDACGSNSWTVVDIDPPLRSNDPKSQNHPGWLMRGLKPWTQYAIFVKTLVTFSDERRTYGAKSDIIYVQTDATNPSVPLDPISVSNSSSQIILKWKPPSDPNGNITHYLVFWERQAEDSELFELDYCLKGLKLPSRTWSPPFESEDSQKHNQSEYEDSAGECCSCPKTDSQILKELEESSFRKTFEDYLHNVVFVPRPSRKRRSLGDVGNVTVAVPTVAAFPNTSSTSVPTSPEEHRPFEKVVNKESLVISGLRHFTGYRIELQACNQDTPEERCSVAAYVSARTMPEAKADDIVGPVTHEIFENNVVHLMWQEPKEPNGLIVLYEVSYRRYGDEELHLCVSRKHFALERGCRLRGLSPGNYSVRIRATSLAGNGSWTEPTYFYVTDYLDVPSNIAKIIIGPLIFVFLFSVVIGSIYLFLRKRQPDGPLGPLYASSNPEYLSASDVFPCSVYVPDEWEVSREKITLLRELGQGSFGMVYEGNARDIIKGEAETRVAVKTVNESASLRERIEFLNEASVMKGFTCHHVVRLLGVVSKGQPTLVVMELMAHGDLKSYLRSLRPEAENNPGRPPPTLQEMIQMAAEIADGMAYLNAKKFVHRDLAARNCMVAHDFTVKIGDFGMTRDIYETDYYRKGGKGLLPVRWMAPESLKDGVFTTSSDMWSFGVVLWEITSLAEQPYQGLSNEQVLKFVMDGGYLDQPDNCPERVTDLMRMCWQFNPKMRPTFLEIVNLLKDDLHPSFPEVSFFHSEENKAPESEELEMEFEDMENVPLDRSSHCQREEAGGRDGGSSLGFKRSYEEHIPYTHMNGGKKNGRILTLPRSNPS

Turning to Leu19-IGF2 analog (ligand), the Kd (as a rule, the free concentration of one partner at which half of the binding sites on the other are occupied at equilibrium, for simple one-to-one binding) turned out to be 7.3 nM in assay [1], 0.28 nM in assay [2] and 1.1 nM in assay [3].
